The record followed here is US20260184782A1 (TWIST BIOSCIENCE, published 2026).

The target of this experiment is T1, recombinant human TIGIT (human, UniProt Q495A1 22-141, limits assumed).
T1 construct: recombinant human TIGIT used in Carterra SPR; also called hTIGIT
T1 sequence (looked up): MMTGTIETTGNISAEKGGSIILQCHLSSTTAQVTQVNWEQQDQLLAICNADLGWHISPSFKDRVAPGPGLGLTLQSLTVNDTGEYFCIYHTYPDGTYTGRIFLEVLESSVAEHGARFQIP
Briefly: SPR Carterra, average. Here is the method: Binding affinities of VHH-Fc proteins to recombinant human TIGIT were measured by SPR using a Carterra instrument (Table 10A). […] Average values reported from measurements from 1-2 samples.

B1: TIGIT-SC145 (Fc fusion)
VHH: EVQLVESGGGLVQPGGSLRLSCAASGNTFSGGFTLGYYVMGWFRQAPGKEREFVAAISRSGTLKAYADGVKGRFTISADNSKNTAYLQMNSLKPEDTAVYYCARVEAYGDPLGYWGQGTLVTVSS
notes: VHH-Fc fusion in assay
Consider B1, for which the equilibrium dissociation constant (Kd) (commonly the free concentration of one partner at which half of the binding sites on the other are occupied at equilibrium, for simple one-to-one binding) worked out at 47.9 nM; the koff (usually a measure of how fast the partners let go of each other) worked out at 0.0108 s⁻¹; the kon – broadly, a measure of how fast the partners come together – worked out at 226000 M⁻¹ s⁻¹.

B2: TIGIT-SC27 (Fc fusion)
VHH: EVQLVESGGGLVQPGGSLRLSCAASGLTFSNYVMGWFRQAPGKEREVVAGILSDGRELYADSVKGRFTISADNSKNTAYLQMNSLKPEDTAVYYCARDVFGEGHWGQGTLVTVSS
notes: VHH-Fc fusion in assay
In the case of B2, the equilibrium dissociation constant (Kd) turned out to be 80.6 nM, the koff turned out to be 0.00624 s⁻¹ and the kon was 80900 M⁻¹ s⁻¹.

B3: TIGIT-SC139 (Fc fusion)
VHH: EVQLVESGGGLVQPGGSLRLSCAASGFTLENNMMGWFRQAPGKEREFVAAISRSGTLKAYADSVKGRFTISADNSKNTAYLRMNSLKPEDTAVYYCAGLTSGGAFSYYWGQGTLVTVSS
notes: VHH-Fc fusion in assay
For the molecule B3, the Kd came to 55.2 nM, the koff is 0.00778 s⁻¹ and the on-rate (kon) was found to be 141000 M⁻¹ s⁻¹.

B4: TIGIT-SC137 (Fc fusion)
VHH: EVQLVESGGGLVQPGGSLRLSCAASGFTLENNMMGWFRQAPGKEREFVAAISRSGTLKAYADSVKGRFTISADNSKNTAYLQMNSLKPEDTAVYYCSLVSGPRWYWGQGTLVTVSS
notes: VHH-Fc fusion in assay
For B4, the Kd came to 102 nM, the koff came to 0.00688 s⁻¹ and the kon was determined as 67500 M⁻¹ s⁻¹.

B5: TIGIT-SC204 (Fc fusion)
VHH: EVQLVESGGGLVQPGGSLRLSCAASGFLFNSYWMVWFRQAPGKEREFVAAIWRSGTLKAYADSVKGRFTISADNSKNTAYLQMNSLKPEDTAVYYCAADVNYGSTWRNWGQGTLVTVSS
notes: VHH-Fc fusion in assay
Take B5: the Kd was found to be 66.7 nM, the off-rate (koff) worked out at 0.00339 s⁻¹ and the kon was found to be 50800 M⁻¹ s⁻¹.

B6: TIGIT-SC15 (Fc fusion)
VHH: EVQLVESGGGLVQPGGSLRLSCAASGSILSFNHIGWFRQAPGKEREGVAWIARYDGSTLYADSVKGRFTISADNSKNTAYLQMNSLKPEDTAVYYCARARGGYVDYWGQGTLVTVSS
notes: VHH-Fc fusion in assay
In the case of B6, the Kd amounted to 62 nM, the koff was determined as 0.00814 s⁻¹ and the kon amounted to 143000 M⁻¹ s⁻¹.

B7: TIGIT-SC53 (Fc fusion)
VHH: EVQLVESGGGLVQPGGSLRLSCAASGFTFSPSWMGWFRQAPGKEREWVASVLRGGYTWYADSVKGRFTISADNSKNTAYLQMNSLKPEDTAVYYCARESTIVGAIDSWGQGTLVTVSS
notes: VHH-Fc fusion in assay
As to B7, the Kd turned out to be 55.4 nM, the dissociation rate constant (koff) worked out at 0.0027 s⁻¹ and the kon was 48800 M⁻¹ s⁻¹.

B8: TIGIT-SC118 (Fc fusion)
VHH: EVQLVESGGGLVQPGGSLRLSCAASGRTFSFMGWFRQAPGKEREWVASVLRGGYTWYADSVKGRFTISADNSKNTAYLQMNSLKPEDTAVYYCAKDGGWFDPWGQGTLVTVSS
notes: VHH-Fc fusion in assay
For B8, the dissociation constant Kd was 114 nM, the koff turned out to be 0.00252 s⁻¹ and the kon turned out to be 29700 M⁻¹ s⁻¹.

B9: TIGIT-SC30 (Fc fusion)
VHH: EVQLVESGGGLVQPGGSLRLSCAASGRSFSSDWIGWFRQAPGKERELVAAIDWSGGSALYADSVKGRFTISADNSKNTAYLQMNSLKPEDTAVYYCARVNWNNVGWFDPWGQGTLVTVSS
notes: VHH-Fc fusion in assay
With B9, the dissociation constant (Kd) was determined as 67.3 nM, the koff was determined as 0.0155 s⁻¹ and the kon was 231000 M⁻¹ s⁻¹.

B10: TIGIT-SC192 (Fc fusion)
VHH: EVQLVESGGGLVQPGGSLRLSCAASGFTFSVYWMGWFRQAPGKEREFVAAISRSGTLKEYADSVKGRFTISADNSKNTAYLQMNSLKPEDTAVYYCARGSGWPKIHFDYWGQGTLVTVSS
notes: VHH-Fc fusion in assay
B10: the Kd was 131 nM, the koff stood at 0.0715 s⁻¹ and the kon came out at 545000 M⁻¹ s⁻¹.

B11: TIGIT-SC193 (Fc fusion)
VHH: EVQLVESGGGLVQPGGSLRLSCAASGFTFSDYWMGWFRQAPGKEREFVAAISRSGTLKAYADSVKGRFTISADNSKNTAYLQMNSLKPEDTAVYYCARGSGWPKIHFDYWGQGTLVTVSS
notes: VHH-Fc fusion in assay
Turning to B11, the dissociation constant Kd was 841 nM, the koff worked out at 0.178 s⁻¹ and the kon came out at 211000 M⁻¹ s⁻¹.

B12: TIGIT-SC96 (Fc fusion)
VHH: EVQLVESGGGLVQPGGSLRLSCAASGMTTIGPMGWFRQAPGKEREFVAAINWSGSSTVYADSVKGRFTISADNSKNTAYLQMNSLKPEDTAVYYCVTYSAYDFRNAWGQGTLVTVSS
notes: VHH-Fc fusion in assay
In the case of B12, the Kd is 113 nM, the off-rate constant (koff) is 0.0176 s⁻¹ and the kon is 166000 M⁻¹ s⁻¹.

B13: TIGIT-SC16 (Fc fusion)
VHH: EVQLVESGGGLVQPGGSLRLSCAASGTTFSSAAMGWFRQAPGKEREWVASVLRGGYTWYADSVKGRFTISADNSKNTAYLQMNSLKPEDTAVYYCARDPVELGDYWGQGTLVTVSS
notes: VHH-Fc fusion in assay
Regarding B13, the dissociation constant (Kd) was 52.6 nM, the koff stood at 0.00387 s⁻¹ and the kon amounted to 80100 M⁻¹ s⁻¹.

B14: TIGIT-SC29 (Fc fusion)
VHH: EVQLVESGGGLVQPGGSLRLSCAASGFTLENNMMGWFRQAPGKERELVAAIDWSGGSTIYADSVKGRFTISADNSKNTAYLQMNSLKPEDTAVYYCARGHDYGDYIAYWGQGTLVTVSS
notes: VHH-Fc fusion in assay
For B14, the Kd came to 59.2 nM, the off-rate (koff) was determined as 0.00287 s⁻¹ and the kon turned out to be 48700 M⁻¹ s⁻¹.

B15: TIGIT-SC174 (Fc fusion)
VHH: EVQLVESGGGLVQPGGSLRLSCAASGFLFDSYAMGWFRQAPGKEREFVAAISWSGGSTYYADSVKGRFTISADNSKNTAYLQMNSLKPEDTAVYYCTTDALRFLEWPWWGQGTLVTVSS
notes: VHH-Fc fusion in assay
For B15, the dissociation constant (Kd) was 124 nM, the dissociation rate constant (koff) is 0.0335 s⁻¹ and the kon amounted to 444000 M⁻¹ s⁻¹.

B16: TIGIT-SC205 (Fc fusion)
VHH: EVQLVESGGGLVQPGGSLRLSCAASGFTFDRSWMGWFRQAPGKEREFVAAIWRSGTLKAYADSVKGRFTISADNGKNTAYLQMNSLKPEDTAVYYCAEGGTTAWGWFVPWGQGTLVTVSS
notes: VHH-Fc fusion in assay
Regarding B16, the Kd was determined as 119 nM, the koff was found to be 0.0854 s⁻¹ and the kon was determined as 718000 M⁻¹ s⁻¹.

B17: TIGIT-SC140 (Fc fusion)
VHH: EVQLVESGGGLVQPGGSLRLSCAASGNTFSGGFTFDRSWMGWFRQAPGKEREWVASVLRGGYTWYADSVKGRFTISADNSKNTAYLQMNSLKPEDTAVYYCAGDRYYDFWSGPNSGDYWGQGTLVTVSS
notes: VHH-Fc fusion in assay
B17: the Kd was found to be 68.7 nM, the koff stood at 0.00474 s⁻¹ and the on-rate constant (kon) came to 68900 M⁻¹ s⁻¹.

B18: TIGIT-SC45 (Fc fusion)
VHH: EVQLVESGGGLVQPGGSLRLSCAASGGTFNAMGWFRQAPGKEREWVASVLRGGYTWYADSVKGRFTISADNSKNTAYLQMNSLKPEDTAVYYCAKDGGSSGTYQNWWGQGTLVTVSS
notes: VHH-Fc fusion in assay
Consider B18, for which the Kd worked out at 103 nM, the off-rate constant (koff) amounted to 0.00929 s⁻¹ and the kon amounted to 89900 M⁻¹ s⁻¹.

B19: TIGIT-SC72 (Fc fusion)
VHH: EVQLVESGGGLVQPGGSLRLSCAASGGLTFSSYAMGWFRQAPGKEREFVAAISWSGGRTYYADSVKGRFTISADNSKNTAYLQMNSLKPEDTAVYYCARWSAKRHSDTMTYYMDVWGQGTLVTVSS
notes: VHH-Fc fusion in assay
For the molecule B19, the Kd turned out to be 48.1 nM, the koff was 0.00168 s⁻¹ and the kon was 34900 M⁻¹ s⁻¹.

B20: TIGIT-SC142 (Fc fusion)
VHH: EVQLVESGGGLVQPGGSLRLSCAASGFSFDRWAMGWFRQAPGKEREFVAAIGWSGNLKAYADSVKGRFTISADNSKNTAYLQMNSLKPEDTAVYYCASGDGYSMDYFDPWGQGTLVTVSS
notes: VHH-Fc fusion in assay
Regarding B20, the Kd came to 66.5 nM, the koff came out at 0.0213 s⁻¹ and the on-rate constant (kon) was 320000 M⁻¹ s⁻¹.

B21: TIGIT-SC164 (Fc fusion)
VHH: EVQLVESGGGLVQPGGSLRLSCAASGFTFDRSWMGWFRQAPGKEREFVASVLRGGYTWYADSVKGRFTISADNSKNTAYLQMNSLKPEDTAVYYCTTEGSGWRNWGQGTLVTVSS
notes: VHH-Fc fusion in assay
For B21, the Kd was 55.7 nM, the koff worked out at 0.00258 s⁻¹ and the kon turned out to be 52800 M⁻¹ s⁻¹.

B22: TIGIT-SC132 (Fc fusion)
VHH: EVQLVESGGGLVQPGGSLRLSCAASGFTLENNMMGWFRQAPGKEREFVAAISASGTLRAYADSVKGRFTISADNSKNTAYLQMNSLKPEDTAVYYCATWRPNRGRYYDWYFDLWGQGTLVTVSS
notes: VHH-Fc fusion in assay
On to B22, for which the dissociation constant (Kd) came to 45.6 nM, the koff came out at 0.00347 s⁻¹ and the kon came to 197000 M⁻¹ s⁻¹.

B23: TIGIT-SC5 (Fc fusion)
VHH: EVQLVESGGGLVQPGGSLRLSCAASGFAFGDSWMGWFRQAPGKEREWVASVLRGGYTWYADSVKGRFTISADNSKNTAYLQMNSLKPEDTAVYYCARESEGWFDPWGQGTLVTVSS
notes: VHH-Fc fusion in assay
For B23, the Kd worked out at 51.4 nM, the koff came to 0.00216 s⁻¹ and the association rate constant (kon) came to 42000 M⁻¹ s⁻¹.

B24: TIGIT-SC183 (Fc fusion)
VHH: EVQLVESGGGLVQPGGSLRLSCAASGFAFGDSWMGWFRQAPGKEREWVASVLRGGYTWYADSVKGRFTISADNSKNTAYLQMNSLKPEDTAVYYCAKDRSYSFDYWGQGTLVTVSS
notes: VHH-Fc fusion in assay
Take B24: the equilibrium dissociation constant (Kd) was determined as 55.2 nM, the koff stood at 0.00495 s⁻¹ and the association rate constant (kon) is 90400 M⁻¹ s⁻¹.

B25: TIGIT-SC182 (Fc fusion)
VHH: EVQLVESGGGLVQPGGSLRLSCAASGFTFSSSSMGWFRQAPGKEREFVAAINWSGGSTSYADSVKGRFTISADNSKNTAYLQMNSPKPEDTAVYYCAKDRSYSFDYWGQGTLVTVSS
notes: VHH-Fc fusion in assay
With B25, the Kd came out at 60.6 nM, the koff came to 0.00722 s⁻¹ and the kon worked out at 119000 M⁻¹ s⁻¹.

B26: TIGIT-SC109 (Fc fusion)
VHH: EVQLVESGGGLVQPGGSLRLSCAASGRDISSYIMGWFRQAPGKERELVAIIDTNGDDTLYADSAKGRFTISADNSKNTAYLQMNSLKPEDTAVYYCANGGRVWWAFDYWGQGTLVTVSS
notes: VHH-Fc fusion in assay
B26: the equilibrium dissociation constant (Kd) turned out to be 121 nM, the off-rate constant (koff) was 0.00468 s⁻¹ and the kon came to 38700 M⁻¹ s⁻¹.
